From publication PMC4278837, “A Cyclic Peptidic Serine Protease Inhibitor: Increasing Affinity by Increasing Peptide Flexibility” (PLoS ONE, 2014)
Bridge positions count the residues as written; N and C are the ends. Square brackets hold non-standard residues; d marks the D form. Ends that are not written are not given here. Ala(1-amidino-4-piperidyl) = N=C(N)N1CCC(C[C@H](N)C(=O)O)CC1; Phe(4-guanidino) = N=C(N)Nc1ccc(C[C@H](N)C(=O)O)cc1

B1: mupain-1 (peptide)
peptide: CPAYSRYLDC
modifications: disulfide 1-10 (inferred)
notes: Synthesised on a resin with Rink amide linker; source: synthetic peptide (solid-phase synthesis, HPLC purified)
B2: Mupain-1 D9A (peptide)
peptide: CPAYSRYLAC
modifications: disulfide 1-10 (inferred)
notes: mupain-1 with D9A; Rink amide linker resin; C-terminal amide surmised; source: synthetic peptide (solid-phase synthesis, HPLC purified)

Target: recombinant catalytic domain of huPA-H99Y (residues 159-411) (human, UniProt P00749 179-431)
Assay: ITC; MicroCal ITC200; peptide injected into 5-50 µM huPA-H99Y catalytic domain; 20 mM sodium phosphate pH 7.4, 140 mM NaCl, 25°C; one-binding-site model
Settings: both partners purified

| Binder | Kd | dH | stoichiometry N |
| --- | --- | --- | --- |
| CPAYS[Phe(4-guanidino)]YLDC (disulfide 1-10) [mupain-1-12] | 400 nM | -10.5 kcal/mol | 0.85 |
| CPAYS[Ala(1-amidino-4-piperidyl)]YLDC (disulfide 1-10; not fully specified) [mupain-1-16] | 380 nM | -7.93 kcal/mol | 0.87 |
| CPAYS[Ala(1-amidino-4-piperidyl)]YLAC (disulfide 1-10; not fully specified) [Mupain-1-16 D9A] | 134 nM | -11.1 kcal/mol | 0.88 |

Target: T1, huPA-H99Y (full length human urokinase-type plasminogen activator with H99Y) (human)
Assay: SPR; Biacore T200; uPA variant amine-coupled to a CM5 chip (about 500 RU); peptides injected in HBS with 0.1% BSA, 30 µL/min, 25°C, pH 7.4; 1:1 kinetic fit; KD = koff/kon
Settings: both partners purified

| Binder | Kd | koff | kon |
| --- | --- | --- | --- |
| CPAYS[Phe(4-guanidino)]YLDC (disulfide 1-10) [mupain-1-12] | 1210 nM | 0.246 s⁻¹ | 206000 M⁻¹ s⁻¹ |
| CPAYS[Ala(1-amidino-4-piperidyl)]YLDC (disulfide 1-10; not fully specified) [mupain-1-16] | 844 nM | 0.0893 s⁻¹ | 107000 M⁻¹ s⁻¹ |
| CPAYS[Ala(1-amidino-4-piperidyl)]YLAC (disulfide 1-10; not fully specified) [Mupain-1-16 D9A] | 71.8 nM | 0.0333 s⁻¹ | 465000 M⁻¹ s⁻¹ |

Target: T2, murine urokinase-type plasminogen activator (muPA) wild type (murine, UniProt P06869 21-433)
T2 construct: cDNA encoding full length muPA; Two-chain form after plasmin; also called muPA wt; muPA-wt; source: HEK293 6E, transfected; treated with plasmin
T2 sequence (P06869 21-433): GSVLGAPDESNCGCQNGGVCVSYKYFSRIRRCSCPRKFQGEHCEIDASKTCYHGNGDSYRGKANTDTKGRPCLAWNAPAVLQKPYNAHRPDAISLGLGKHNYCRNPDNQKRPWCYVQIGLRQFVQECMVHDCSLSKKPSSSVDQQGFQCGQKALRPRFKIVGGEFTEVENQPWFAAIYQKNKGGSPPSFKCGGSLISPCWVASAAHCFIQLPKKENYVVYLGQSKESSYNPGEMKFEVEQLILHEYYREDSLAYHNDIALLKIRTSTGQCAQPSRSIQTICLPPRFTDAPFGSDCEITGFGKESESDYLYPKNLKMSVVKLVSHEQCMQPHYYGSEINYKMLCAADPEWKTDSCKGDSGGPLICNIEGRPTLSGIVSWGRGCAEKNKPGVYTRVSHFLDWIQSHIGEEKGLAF
Assay: as above
Settings: both partners purified

| Binder | Kd | koff | kon |
| --- | --- | --- | --- |
| CPAYS[Phe(4-guanidino)]YLDC (disulfide 1-10) [mupain-1-12] | 138 nM | 0.0192 s⁻¹ | 156000 M⁻¹ s⁻¹ |
| B1 | 398 nM | 0.0364 s⁻¹ | 91400 M⁻¹ s⁻¹ |
| B2 | 417 nM | 0.0401 s⁻¹ | 98500 M⁻¹ s⁻¹ |
| CPAYS[Ala(1-amidino-4-piperidyl)]YLDC (disulfide 1-10; not fully specified) [mupain-1-16] | 89.4 nM | 0.00671 s⁻¹ | 89800 M⁻¹ s⁻¹ |
| CPAYS[Ala(1-amidino-4-piperidyl)]YLAC (disulfide 1-10; not fully specified) [Mupain-1-16 D9A] | 21.3 nM | 0.0122 s⁻¹ | 579000 M⁻¹ s⁻¹ |

Target: T1, huPA-H99Y (full length human …)
Assay: enzyme inhibition (steady state, chromogenic substrate S-2444); about 2 nM enzyme (purified or conditioned medium of transfected cells) pre-incubated 15 min with varied peptide in HBS (10 mM HEPES pH 7.4, 140 mM NaCl) with 0.1% BSA at 37°C; substrate about KM; fit for competitive inhibition; highest peptide concentration 400 µM
Settings: not given

| Binder | Ki |
| --- | --- |
| CPAYS[Ala(1-amidino-4-piperidyl)]YLAC (disulfide 1-10; not fully specified) [Mupain-1-16 D9A] | 309 nM |

Target: huPA-H99Y-R35A (human)
Assay: as above
Settings: not given

| Binder | Ki |
| --- | --- |
| CPAYS[Phe(4-guanidino)]YLDC (disulfide 1-10) [mupain-1-12] | 3260 nM |
| CPAYS[Ala(1-amidino-4-piperidyl)]YLDC (disulfide 1-10; not fully specified) [mupain-1-16] | 2500 nM |
| CPAYS[Ala(1-amidino-4-piperidyl)]YLAC (disulfide 1-10; not fully specified) [Mupain-1-16 D9A] | 174 nM |

Target: huPA-H99Y-V41A (human)
Assay: as above
Settings: not given

| Binder | Ki |
| --- | --- |
| CPAYS[Phe(4-guanidino)]YLDC (disulfide 1-10) [mupain-1-12] | 1600 nM |
| CPAYS[Ala(1-amidino-4-piperidyl)]YLDC (disulfide 1-10; not fully specified) [mupain-1-16] | 1950 nM |
| CPAYS[Ala(1-amidino-4-piperidyl)]YLAC (disulfide 1-10; not fully specified) [Mupain-1-16 D9A] | 480 nM |

Target: huPA-H99Y-K143A (human)
Assay: as above
Settings: not given

| Binder | Ki |
| --- | --- |
| CPAYS[Phe(4-guanidino)]YLDC (disulfide 1-10) [mupain-1-12] | 2140 nM |
| CPAYS[Ala(1-amidino-4-piperidyl)]YLDC (disulfide 1-10; not fully specified) [mupain-1-16] | 1130 nM |
| CPAYS[Ala(1-amidino-4-piperidyl)]YLAC (disulfide 1-10; not fully specified) [Mupain-1-16 D9A] | 188 nM |

Target: huPA-H99Y-Q192A (human)
Assay: as above
Settings: not given

| Binder | Ki |
| --- | --- |
| CPAYS[Phe(4-guanidino)]YLDC (disulfide 1-10) [mupain-1-12] | 2350 nM |
| CPAYS[Ala(1-amidino-4-piperidyl)]YLDC (disulfide 1-10; not fully specified) [mupain-1-16] | 2710 nM |
| CPAYS[Ala(1-amidino-4-piperidyl)]YLAC (disulfide 1-10; not fully specified) [Mupain-1-16 D9A] | 438 nM |

Target: T2, murine urokinase-type plasminogen …
Assay: as above
Settings: not given

| Binder | Ki |
| --- | --- |
| CPAYS[Ala(1-amidino-4-piperidyl)]YLAC (disulfide 1-10; not fully specified) [Mupain-1-16 D9A] | 76 nM |

Target: T3, muPA-K41A (murine)
T3 construct: site directed mutant of full length muPA; numbers count on: chymotrypsin numbering; Two-chain form after plasmin; source: HEK293 6E, transfected; treated with plasmin
Assay: as above
Settings: not given

| Binder | Ki |
| --- | --- |
| CPAYS[Phe(4-guanidino)]YLDC (disulfide 1-10) [mupain-1-12] | 1720 nM |
| CPAYS[Ala(1-amidino-4-piperidyl)]YLDC (disulfide 1-10; not fully specified) [mupain-1-16] | 300 nM |
| CPAYS[Ala(1-amidino-4-piperidyl)]YLAC (disulfide 1-10; not fully specified) [Mupain-1-16 D9A] | 14 nM |

Target: T4, muPA-Y99A (murine)
T4 construct: site directed mutant of full length muPA; numbers count on: chymotrypsin numbering; Two-chain form after plasmin; source: HEK293 6E, transfected; treated with plasmin
Assay: as above
Settings: not given

| Binder | Ki |
| --- | --- |
| CPAYS[Phe(4-guanidino)]YLDC (disulfide 1-10) [mupain-1-12] | 5200 nM |
| CPAYS[Ala(1-amidino-4-piperidyl)]YLDC (disulfide 1-10; not fully specified) [mupain-1-16] | 1240 nM |
| CPAYS[Ala(1-amidino-4-piperidyl)]YLAC (disulfide 1-10; not fully specified) [Mupain-1-16 D9A] | 1360 nM |

Target: T5, muPA-K143A (murine)
T5 construct: site directed mutant of full length muPA; numbers count on: chymotrypsin numbering; Two-chain form after plasmin; source: HEK293 6E, transfected; treated with plasmin
Assay: as above
Settings: not given

| Binder | Ki |
| --- | --- |
| CPAYS[Phe(4-guanidino)]YLDC (disulfide 1-10) [mupain-1-12] | 1000 nM |
| CPAYS[Ala(1-amidino-4-piperidyl)]YLDC (disulfide 1-10; not fully specified) [mupain-1-16] | 130 nM |
| CPAYS[Ala(1-amidino-4-piperidyl)]YLAC (disulfide 1-10; not fully specified) [Mupain-1-16 D9A] | 100 nM |

Target: T6, muPA-S190A (murine)
T6 construct: site directed mutant of full length muPA; numbers count on: chymotrypsin numbering; Two-chain form after plasmin; source: HEK293 6E, transfected; treated with plasmin
Assay: as above
Settings: not given

| Binder | Ki |
| --- | --- |
| CPAYS[Phe(4-guanidino)]YLDC (disulfide 1-10) [mupain-1-12] | 2300 nM |
| CPAYS[Ala(1-amidino-4-piperidyl)]YLDC (disulfide 1-10; not fully specified) [mupain-1-16] | 352 nM |
| CPAYS[Ala(1-amidino-4-piperidyl)]YLAC (disulfide 1-10; not fully specified) [Mupain-1-16 D9A] | 529 nM |

Target: T7, muPA-V213T (murine)
T7 construct: site directed mutant of full length muPA; numbers count on: chymotrypsin numbering; Two-chain form after plasmin; source: HEK293 6E, transfected; treated with plasmin
Assay: as above
Settings: not given

| Binder | Ki |
| --- | --- |
| CPAYS[Phe(4-guanidino)]YLDC (disulfide 1-10) [mupain-1-12] | 86 nM |
| CPAYS[Ala(1-amidino-4-piperidyl)]YLDC (disulfide 1-10; not fully specified) [mupain-1-16] | 13 nM |
| CPAYS[Ala(1-amidino-4-piperidyl)]YLAC (disulfide 1-10; not fully specified) [Mupain-1-16 D9A] | 14 nM |
